T1: Human BCMA (human, UniProt Q02223 1-54, limits assumed)
T1 construct: Soluble analyte in SPR; construct not described; also called huBCMA; B-cell maturation antigen
T1 sequence (looked up): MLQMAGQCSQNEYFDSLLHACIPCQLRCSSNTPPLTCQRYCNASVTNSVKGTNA


Biological target: T1, Human BCMA
Assay: SPR, IgG immobilised, 37 C
Description: All experiments were performed on a Bio-Rad Proteon XPR36 surface Plasmon resonance biosensor (Bio-Rad, Hercules, Calif.). […] The analysis temperature for the immobilization was 25° C. and the running buffer was HBS-T+(10 mM HEPES, 150 mM NaCl, 0.05% Tween-20, pH 7.4). Channels were activated in the analyte (horizontal) direction by injecting a mixture of 1 mM ECD and 0.25 mM NHS for 3 minutes at a flow rate of 30 μL/min. IgGs were immobilized on the activated spots by injecting them in the ligand (vertical) direction at 20 μg/mL in 10 mM Acetate pH 4.5 buffer for 1.5 minutes at […]. The activated surfaces were blocked by injecting 1M ethanolamine, pH 8.5 in the analyte direction for 3 minutes at 30 μL/min.
The analysis temperature for the BCMA binding analysis was 37° C. or 25° C. in a running buffer of HBS-T+, supplemented with 1 mg/mL BSA. A kinetic titration method was employed for the interaction analysis as described in Abdiche, et al. Human BCMA (huBCMA) or cynomolgus monkey BCMA (cyBCMA) analyte was injected in the analyte direction using a series of injections from low to high concentration. The concentrations used were 0.08 nM, 0.4 nM, 2 nM, 10 nM and 50 nM (a 5-membered series, with a 5-fold dilution factor and top concentration of 50 nM). The association time for a given analyte dilution was two minutes. Immediately after the 50 nM BCMA injection, dissociation was monitored for 2 hours.
The sensorgrams were double-referenced and fit to a 1:1 Langmuir with mass transport kinetic titration model in BIAevaluation Software version 4.1.1 (GE Lifesciences, Piscataway, N.J.).

Binder | Kd [nM] | T ½ [min] | koff [s⁻¹] | kon [M⁻¹ s⁻¹]
L3.PY/L1.AH/H3.TAQ (antibody, V domains shown, IgG) VH: EVQLLESGGGLVQPGGSLRLSCAASGFTFGSYAMTWVRQAPGKGLEWVSAISGSGGNTFYADSVKGRFTISRDNSKNTLYLQMNSLRAEDTAVYYCTRVSPIAAQMDYWGQGTLVTVSS VL: EIVLTQSPGTLSLSPGERATLSCRASQSVSAHYLAWYQQKPGQAPRLLIYGASSRATGIPDRFSGSGSGTDFTLTISRLEPEDFAVYYCQHYPYPPSFTFGQGTKVEIK | 0.37 | 9.68 | 0.00119 | 3.27e+06
L3.PY/L1.FF/H2.DY (antibody, V domains shown, IgG) VH: EVQLLESGGGLVQPGGSLRLSCAASGFTFGSYAMTWVRQAPGKGLEWVSAIDYSGGNTFYADSVKGRFTISRDNSKNTLYLQMNSLRAEDTAVYYCARVSPIASGMDYWGQGTLVTVSS VL: EIVLTQSPGTLSLSPGERATLSCRASQSVSSFFLAWYQQKPGQAPRLLIYGASSRATGIPDRFSGSGSGTDFTLTISRLEPEDFAVYYCQHYPYPPSFTFGQGTKVEIK | 0.65 | 4.27 | 0.00271 | 4.14e+06
L3.PY/L1.PH/H3.AE (antibody, V domains shown, IgG) VH: EVQLLESGGGLVQPGGSLRLSCAASGFTFGSYAMTWVRQAPGKGLEWVSAISGSGGNTFYADSVKGRFTISRDNSKNTLYLQMNSLRAEDTAVYYCARVSPIAAEMDYWGQGTLVTVSS VL: EIVLTQSPGTLSLSPGERATLSCRASQSVSPHYLAWYQQKPGQAPRLLIYGASSRATGIPDRFSGSGSGTDFTLTISRLEPEDFAVYYCQHYPYPPSFTFGQGTKVEIK | 0.36 | 8.61 | 0.00134 | 3.68e+06
L3.PY/L1.FF/H3.YA (antibody, V domains shown, IgG) VH: EVQLLESGGGLVQPGGSLRLSCAASGFTFGSYAMTWVRQAPGKGLEWVSAISGSGGNTFYADSVKGRFTISRDNSKNTLYLQMNSLRAEDTAVYYCARVSPIYAGMDYWGQGTLVTVSS VL: EIVLTQSPGTLSLSPGERATLSCRASQSVSSFFLAWYQQKPGQAPRLLIYGASSRATGIPDRFSGSGSGTDFTLTISRLEPEDFAVYYCQHYPYPPSFTFGQGTKVEIK | 0.51 | 6.41 | 0.0018 | 3.5e+06
L3.PY/L1.FF/H2.QR (antibody, V domains shown, IgG) VH: EVQLLESGGGLVQPGGSLRLSCAASGFTFGSYAMTWVRQAPGKGLEWVSAISGSGGNTFYADQRKGRFTISRDNSKNTLYLQMNSLRAEDTAVYYCARVSPIASGMDYWGQGTLVTVSS VL: EIVLTQSPGTLSLSPGERATLSCRASQSVSSFFLAWYQQKPGQAPRLLIYGASSRATGIPDRFSGSGSGTDFTLTISRLEPEDFAVYYCQHYPYPPSFTFGQGTKVEIK | 0.51 | 6.54 | 0.00177 | 3.47e+06
L3.PY/L1.PH/H3.AQ (antibody, V domains shown, IgG) VH: EVQLLESGGGLVQPGGSLRLSCAASGFTFGSYAMTWVRQAPGKGLEWVSAISGSGGNTFYADSVKGRFTISRDNSKNTLYLQMNSLRAEDTAVYYCARVSPIAAQMDYWGQGTLVTVSS VL: EIVLTQSPGTLSLSPGERATLSCRASQSVSPHYLAWYQQKPGQAPRLLIYGASSRATGIPDRFSGSGSGTDFTLTISRLEPEDFAVYYCQHYPYPPSFTFGQGTKVEIK | 0.52 | 7.27 | 0.00159 | 3.08e+06
L3.PY/L1.PH/H2.HA (antibody, V domains shown, IgG) VH: EVQLLESGGGLVQPGGSLRLSCAASGFTFGSYAMTWVRQAPGKGLEWVSAISHAGGNTFYADSVKGRFTISRDNSKNTLYLQMNSLRAEDTAVYYCARVSPIASGMDYWGQGTLVTVSS VL: EIVLTQSPGTLSLSPGERATLSCRASQSVSPHYLAWYQQKPGQAPRLLIYGASSRATGIPDRFSGSGSGTDFTLTISRLEPEDFAVYYCQHYPYPPSFTFGQGTKVEIK | 0.49 | 9.99 | 0.00116 | 2.37e+06
L3.PY/L1.FF/H3.AQ (antibody, V domains shown, IgG) VH: EVQLLESGGGLVQPGGSLRLSCAASGFTFGSYAMTWVRQAPGKGLEWVSAISGSGGNTFYADSVKGRFTISRDNSKNTLYLQMNSLRAEDTAVYYCARVSPIAAQMDYWGQGTLVTVSS VL: EIVLTQSPGTLSLSPGERATLSCRASQSVSSFFLAWYQQKPGQAPRLLIYGASSRATGIPDRFSGSGSGTDFTLTISRLEPEDFAVYYCQHYPYPPSFTFGQGTKVEIK | 0.46 | 7.51 | 0.00154 | 3.32e+06
L3.PY/L1.FF/H2.HA (antibody, V domains shown, IgG) VH: EVQLLESGGGLVQPGGSLRLSCAASGFTFGSYAMTWVRQAPGKGLEWVSAISHAGGNTFYADSVKGRFTISRDNSKNTLYLQMNSLRAEDTAVYYCARVSPIASGMDYWGQGTLVTVSS VL: EIVLTQSPGTLSLSPGERATLSCRASQSVSSFFLAWYQQKPGQAPRLLIYGASSRATGIPDRFSGSGSGTDFTLTISRLEPEDFAVYYCQHYPYPPSFTFGQGTKVEIK | 0.63 | 5.29 | 0.00219 | 3.49e+06
L3.PY/L1.PH/H2.QR (antibody, V domains shown, IgG) VH: EVQLLESGGGLVQPGGSLRLSCAASGFTFGSYAMTWVRQAPGKGLEWVSAISGSGGNTFYADQRKGRFTISRDNSKNTLYLQMNSLRAEDTAVYYCARVSPIASGMDYWGQGTLVTVSS VL: EIVLTQSPGTLSLSPGERATLSCRASQSVSPHYLAWYQQKPGQAPRLLIYGASSRATGIPDRFSGSGSGTDFTLTISRLEPEDFAVYYCQHYPYPPSFTFGQGTKVEIK | 0.64 | 4.89 | 0.00236 | 3.69e+06
L3.PY/L1.FF/H3.AE (antibody, V domains shown, IgG) VH: EVQLLESGGGLVQPGGSLRLSCAASGFTFGSYAMTWVRQAPGKGLEWVSAISGSGGNTFYADSVKGRFTISRDNSKNTLYLQMNSLRAEDTAVYYCARVSPIAAEMDYWGQGTLVTVSS VL: EIVLTQSPGTLSLSPGERATLSCRASQSVSSFFLAWYQQKPGQAPRLLIYGASSRATGIPDRFSGSGSGTDFTLTISRLEPEDFAVYYCQHYPYPPSFTFGQGTKVEIK | 0.69 | 4.39 | 0.00263 | 3.82e+06
L3.PY/L1.FF/H2.QL (antibody, V domains shown, IgG) VH: EVQLLESGGGLVQPGGSLRLSCAASGFTFGSYAMTWVRQAPGKGLEWVSAISGSGGNTFYADQLKGRFTISRDNSKNTLYLQMNSLRAEDTAVYYCARVSPIASGMDYWGQGTLVTVSS VL: EIVLTQSPGTLSLSPGERATLSCRASQSVSSFFLAWYQQKPGQAPRLLIYGASSRATGIPDRFSGSGSGTDFTLTISRLEPEDFAVYYCQHYPYPPSFTFGQGTKVEIK | 0.4 | 8.28 | 0.0014 | 3.48e+06
L3.PY/L1.FF/H3.TAQ (antibody, V domains shown, IgG) VH: EVQLLESGGGLVQPGGSLRLSCAASGFTFGSYAMTWVRQAPGKGLEWVSAISGSGGNTFYADSVKGRFTISRDNSKNTLYLQMNSLRAEDTAVYYCTRVSPIAAQMDYWGQGTLVTVSS VL: EIVLTQSPGTLSLSPGERATLSCRASQSVSSFFLAWYQQKPGQAPRLLIYGASSRATGIPDRFSGSGSGTDFTLTISRLEPEDFAVYYCQHYPYPPSFTFGQGTKVEIK | 0.54 | 6.12 | 0.00189 | 3.52e+06
L3.PY/L1.PH/H3.TAQ (antibody, V domains shown, IgG) VH: EVQLLESGGGLVQPGGSLRLSCAASGFTFGSYAMTWVRQAPGKGLEWVSAISGSGGNTFYADSVKGRFTISRDNSKNTLYLQMNSLRAEDTAVYYCTRVSPIAAQMDYWGQGTLVTVSS VL: EIVLTQSPGTLSLSPGERATLSCRASQSVSPHYLAWYQQKPGQAPRLLIYGASSRATGIPDRFSGSGSGTDFTLTISRLEPEDFAVYYCQHYPYPPSFTFGQGTKVEIK | 0.59 | 5.43 | 0.00213 | 3.58e+06
L3.PY/L1.FF/H2.YQ (antibody, V domains shown, IgG) VH: EVQLLESGGGLVQPGGSLRLSCAASGFTFGSYAMTWVRQAPGKGLEWVSAISYQGGNTFYADSVKGRFTISRDNSKNTLYLQMNSLRAEDTAVYYCARVSPIASGMDYWGQGTLVTVSS VL: EIVLTQSPGTLSLSPGERATLSCRASQSVSSFFLAWYQQKPGQAPRLLIYGASSRATGIPDRFSGSGSGTDFTLTISRLEPEDFAVYYCQHYPYPPSFTFGQGTKVEIK | 0.46 | 7.61 | 0.00152 | 3.32e+06
L3.PY/L1.FF/H2.LT (antibody, V domains shown, IgG) VH: EVQLLESGGGLVQPGGSLRLSCAASGFTFGSYAMTWVRQAPGKGLEWVSAISLTGGNTFYADSVKGRFTISRDNSKNTLYLQMNSLRAEDTAVYYCARVSPIASGMDYWGQGTLVTVSS VL: EIVLTQSPGTLSLSPGERATLSCRASQSVSSFFLAWYQQKPGQAPRLLIYGASSRATGIPDRFSGSGSGTDFTLTISRLEPEDFAVYYCQHYPYPPSFTFGQGTKVEIK | 0.51 | 6.92 | 0.00167 | 3.3e+06
